The text below walks through data of patent US20110086026A1 (ROCHE PALO ALTO, published 2011).

Numbering of substitutions follows the chain as printed.

B1: HuMab LC5002-005 (antibody, V domains shown)
VH: EVQVLDSGGGLVQPGGSLRLSCTASGFTFRLYTMSWVRQTPGRGLEWVSGISGSGLSTYFADSVKGRFTISRDNSKNTVYLQMNSLRAEDTAVYYCAKEGDWIYFDSWGQGTLVIVSS
VL: DIQMTQSPSSLSASVGDRVTITCRASQGISSWLAWYQQKPEKAPKSLIYAASSLQSGVPSRFSGSGSGTDFTLTISSLQPEDFATYYCQQYNSHPPTFGQGTKLEIK
notes: Only the variable domains are tied to this antibody; also called hu-MAB<h-IL-13Ralpha>LC.5002-005 (DSM ACC2711)
B2: HuMab LC5002-003 (antibody, V domains shown)
VH: EVQLLESGGDLIQPGGSLRLSCAASGFTFNIYAMNWVRQAPGKGLEWVSVISGRGITTYYADSVKGRFTISRDNSKNTLYLQMDSLRAEDTAVYYCAKGSSYWTDFDYWGQGTLVTVSS
VL: B1 VL with H94Y, P96W, L104V
notes: Human IgG1 kappa from a HuMab mouse hybridoma; Only the variable domains are tied to this antibody; also called LC50002-003; hu-MAB<h-IL-13Ralpha>LC.5002-003 (DSM ACC2710)
B3: HuMab LC5002-007 (antibody, human IgG1, V domains shown)
VH: QVQLVQSGAEVKKPGSSVKVSCKVSGGTFSSYAFSWVRQAPGQGLEWMGRIIPILGRTNYAQKFQGRVTITADKSTSTAYMEVSSLRSEDTAVYYCAREGETLDYFYYGMDVWGQGTTVTVSS
VL: EIVLTQSPGTLSLSPGERATLSCRASQSVSSSYLAWYQQKPGQAPRLLIYGASSRAIGIPDRFSGSGSGTDFTLTISRLEPEDFAVYYCQHYGSSLTFGGGTKVEIK
notes: Human IgG1 kappa from a HuMab mouse hybridoma; Only the variable domains are tied to this antibody; also called hu-MAB<h-IL-13R alpha>LC.5002-007 (DSM ACC2712)
B4: HuMab LC5002-002 (antibody, human IgG1, V domains shown)
VH: B2 VH with D10G, I12V, D84N, E89D, Y102S
VL: B1 VL with S31R, L33V, H94Y, P96W, L104V
notes: Human IgG1 kappa from a HuMab mouse hybridoma; Only the variable domains are tied to this antibody; also called hu-MAB<h-IL-13R alpha>LC.5002-002 (DSM ACC2709)

One assay concerns the target T1, hIL-13Rα1:hFc chimeric protein (R&D Systems, UK) (human, UniProt P78552 22-343).
T1 construct: extracellular domain; Bought; also called chimeric hIL-13Rα1:hFc; not shown: human Fc (hFc) of the bought chimera
T1 sequence (looked up): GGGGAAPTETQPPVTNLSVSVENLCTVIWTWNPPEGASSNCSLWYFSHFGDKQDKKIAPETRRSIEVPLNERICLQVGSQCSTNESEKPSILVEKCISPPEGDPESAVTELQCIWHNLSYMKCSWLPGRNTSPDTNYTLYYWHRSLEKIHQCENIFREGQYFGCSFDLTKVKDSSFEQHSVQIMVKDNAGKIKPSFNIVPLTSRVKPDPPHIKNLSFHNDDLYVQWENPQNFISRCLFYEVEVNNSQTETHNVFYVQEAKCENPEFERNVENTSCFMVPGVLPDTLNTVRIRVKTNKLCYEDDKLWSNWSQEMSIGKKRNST
The experiment in a line: SPR Biacore 3000, HuMab captured by anti-hFcγ, hIL-13Rα1:hFc as analyte, 1:1 Langmuir model. How it is done: For interaction analysis a Biacore 3000 instrument was used. As running and reaction buffer, HBS-P (10 mM HEPES, 150 mM NaCl, 0.005% polysurfactant P, pH 7.4) at 25° C. was used. Capturing molecules (goat anti-human-IgG, Fcγ specifc) were amine-coupled at a concentration of 20 μg/ml at a flow rate of 5 μl/min for 20 minutes. HuMabs were injected at a concentration of 1 μg/ml at a flow rate of 10 μl/min for 1 minute. Blocking of the free goat anti human IgG, Fcγ was achieved by injecting human gamma globulin at 500 nM and 30 μl/min for 3 minutes. Analyte (hIL-13Rα1:hFc chimeric protein) was injected for two minutes at five concentrations between 5.63 nM and 90 nM and washed with HBS-P for five minutes. Regeneration of the surface was accomplished by two injections of 100 mM HCl for 1 min each. The chip, assay format and sequence of injections and kinetic data correspond to the description in table 2. Negative control data (e.g. buffer curves) were subtracted from sample curves for correction of system intrinsic baseline drift and for noise signal reduction. BiaEvaluation version 4.01 was used for analysis of sensorgrams and for calculation of affinity data. Kinetic data were calculated by fitting kinetic data to a 1:1 Langmuir binding model (Table 2).
For B1, binding was characterised by a dissociation constant (Kd) of 0.018 nM, the koff is 3.12e-06 s⁻¹ and the kon worked out at 173000 M⁻¹ s⁻¹.

B2 registered a dissociation constant (Kd) below 0.0065 nM, a dissociation rate constant (koff) of 1.4e-06 s⁻¹ and a kon of 210000 M⁻¹ s⁻¹.

B3 showed a Kd below 0.0084 nM, a koff of 1e-06 s⁻¹ and an on-rate constant (kon) of 119000 M⁻¹ s⁻¹.

A further assay deals with T2, human IL-13Rα1 (human, UniProt P78552 22-427).
T2 sequence (looked up): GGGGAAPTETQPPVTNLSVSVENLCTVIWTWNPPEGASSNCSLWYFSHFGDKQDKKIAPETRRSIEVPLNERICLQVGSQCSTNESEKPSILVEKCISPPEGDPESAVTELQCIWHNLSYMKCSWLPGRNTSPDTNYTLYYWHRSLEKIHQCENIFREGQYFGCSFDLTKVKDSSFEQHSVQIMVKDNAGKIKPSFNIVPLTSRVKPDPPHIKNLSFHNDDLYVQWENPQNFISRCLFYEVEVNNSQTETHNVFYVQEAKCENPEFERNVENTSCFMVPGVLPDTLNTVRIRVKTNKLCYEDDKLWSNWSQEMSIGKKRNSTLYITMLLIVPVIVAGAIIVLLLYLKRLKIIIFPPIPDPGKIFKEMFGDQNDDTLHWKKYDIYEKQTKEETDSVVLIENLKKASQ
The experiment in a line: cell-based or functional assay.
As to B1, the “IC50, IL-13-induced Stat-6 phosphorylation in BSMC” value is 1.18 nM and the “IC50, TF-1 proliferation in response to IL-13” value (“IC50, TF-1 proliferation” for short) came to 0.39 nM.

As for B4, the “IC50, TF-1 proliferation” value was 9.21 nM.

Turning to B2, the “IC50, IL-13-induced Stat-6 phosphorylation in BSMC” value was 5.98 nM and the “IC50, TF-1 proliferation” value was found to be 3.07 nM.

Another assay has as its target T3, extracellular domain of IL-13Rα1 (R&D Systems, UK) (human, UniProt P78552 22-343).
T3 construct: extracellular domain; Bought; also called recombinant human IL-13Rα1 polypeptide; immobilized extracellular domains of human IL-13Rα1
T3 sequence (looked up): T1 sequence (looked up)
Briefly: ELISA, immobilized extracellular domain of human IL-13Rα1, detection with anti-human kappa-POD, OD 405nm-492nm. How it is done:
To determine the ability of the antibodies of the invention to bind to recombinant IL-13Rα1, the extracellular domain of IL-13Rα1 (R&D Systems, UK) was dissolved in PBS (1 μg/ml) and allowed to adsorb to microtiter plates (NUNC Maxisorb) by incubation over night at 4° C. After washing the plates with washing buffer (WB=0.9% NaCl; 0.1% Tween® 20) unspecific binding sites were blocked by addition of 100 μl incubation buffer (IB=PBS with 1% crotein C and 0.1% Tween® 20) and incubation for 30 min at room-temperature (RT). Then, serially diluted HuMab and control antibodies (100 μl/well; dilutions in IB) were added and incubated for 1 hour at RT. The plates were again washed, and bound human antibodies were detected by incubation with peroxidase-conjugated rabbit anti-human kappa (DAKO, Denmark) in a final dilution of 1:500 in IB. Polyclonal goat anti-hIL-13Rα1 antibodies were detected with peroxidase-conjugated polyclonal donkey anti-goat IgG (Santa Cruz; dilution 1:1000 in IB). After incubation for 1 h at RT and a subsequent washing step, the plates were developed with ready-to-use ABTS® solution (Roche Diagnostics GmbH) at RT in the dark. Absorbance was measured at 405 nm after absorbance of the highest concentration reached a sufficient OD.
In the case of B1, the “EC50 (read off the curve)” value was around 1 nM.

As for B4, the “EC50 (read off the curve)” value was around 1 nM.

Take B2: the “EC50 (read off the curve)” value was 1 to 2 nM.

For B3, the half-maximal effective concentration (EC50 (read off the curve)) is around 0.8 nM.
